For four substances, ratio of mono-exponential fit constants αF3/αWT from scramblase-based analysis of reconstitution into vesicles, ratio of mono-exponential fit constants α(construct)/αWT from scramblase-based analysis of reconstitution into vesicles and mono-exponential fit constant (α) of p(≥ 1) scramblase versus PPR* after reconstitution of purified opsin into vesicles results are on record in article PMC8131606.

The target in assay [1] is F3 (F220C, F221A, F228A) opsin (bovine) (UniProt P02699).
Assay [2] has as its target F2 (F221A, F228A) opsin (bovine) (UniProt P02699).
The target in assay [3] is F1 (F228A) opsin (bovine) (UniProt P02699).
The target in assay [4] is WT opsin (thermostable bovine opsin with C-terminal 3X-FLAG tag) (bovine) (UniProt P02699).

Consider “F3 (F220C, F221A, F228A) opsin (from UniProt P02699 1-348) (receptor)”, for which, in assay [1], the ratio of mono-exponential fit constants αF3/αWT from scramblase-based analysis of reconstitution into vesicles came out at 0.4.
Regarding “F2 (F221A, F228A) opsin (from UniProt P02699 1-348) (receptor)”, the ratio of mono-exponential fit constants α(construct)/αWT from scramblase-based analysis of reconstitution into vesicles in assay [2] was 1.
For “F1 (F228A) opsin (from UniProt P02699 1-348) (receptor)”, in assay [3], the ratio of mono-exponential fit constants α(construct)/αWT from scramblase-based analysis of reconstitution into vesicles stood at 1.
Take “WT opsin (thermostable bovine opsin with C-terminal 3X-FLAG tag) (from UniProt P02699 1-348) (receptor)”: the mono-exponential fit constant (α) of p(≥ 1) scramblase versus PPR* after reconstitution of purified opsin into vesicles in assay [4] came to 0.25.
